Measured values as given in US20220409512A1, “ORAL CARE COMPOSITIONS FOR GUM HEALTH” (The Procter & Gamble Company, priority 2020, published 2022).

Assays:
[1] = test system: Primary Human Gingival Fibroblasts; experiment: In-Vitro Human Gingival Fibroblasts Soluble Collagen Assay; assay type: cell-based; settings: 72 hours
Protocol: Stage 1: Culturing Primary Human Gingival Fibroblasts (“HGF”): Primary Human Gingival Fibroblasts (“HGF”) were collected from tooth extraction patients and washed with 5 mL of PBS (phosphate buffered saline). The tissues were chopped into small pieces and placed into 15 mL centrifuge tube. The samples were digested with equal amounts of 1 mL 8% dispase and 1 mL 6% collagenase for 1 hr at 37° C., during which time the samples need to be shaken every 15 minutes. Once the digestion process was complete, the tube was centrifuged at 1100 r.p.m. for 6 minutes at room temperature. After centrifugation, a pellet of cells was formed in the bottom of the tube separating them from the supernatant solution. […] The petri dish with cells were placed in the incubator at 37° C. with 5% CO2 for about 10 days. The petri dish was checked for changes in medium color every two days. Fresh culture medium was replaced if changes in medium color occurred.
It was occasionally necessary to tap the petri dish to remove any sticky cells from the petri dish surface. At least 1 mL of fresh MEM culture medium was added to inactivate the trypsin and the cells are collected into a 15 mL centrifuge tube. The tube was then centrifuged at 1100 r.p.m. for 6 minutes at room temperature. […] Petri dishes were each placed with 1 mL cell suspension and 9 mL fresh MEM culture medium in the incubator at 37° C. with 5% CO2 for about 3-5 days until 80-90% cell monolayer coverage on the petri dishes was observed. […] 1 mL cell suspension and 1 mL fresh MEM culture medium were respectively added into each well of a 6-well plate. The cells were further washed with 2 mL PBS to remove any suspended cells until no suspended cells are visible. 2 mL culture medium, or 2 mL culture medium containing 1% Comparative Compositions or 2 mL culture medium containing 1% Inventive Compositions were added to the wells. Cells were maintained in the incubator at 37° C. with 5% CO2 for 72 hours.
After treatment, cells were washed two times with chilled PBS and homogenized with 6M urea. The cell homogenates were centrifuged at 15,000 r.p.m. for 15 min. 100 μL of the supernatant was mixed with 1 mL of Sircol Dye Reagent for 30 minutes. During this time period, a collagen-dye complex formed and precipitated out from the soluble unbound dye. The tubes were transferred to a microcentrifuge and spun at 12,000 r.p.m. for 10 minutes. The tubes were carefully inverted and drained. 750 μL ice-cold Acid-Salt Wash Reagent was gently added to the collagen-dye pellet to remove unbound dye from the surface of the pellet and the inside surface of the microcentrifuge tube. The tube was then centrifuged at 12,000 r.p.m. for 10 minutes. […]

COL1A1 = experiment: Compound Screening on Skin Dermis, collagen gene expression (microarray); assay type: in vivo, human; settings: dorsal forearm twice daily, four weeks, retinol at 0.2%, Pal-KTTKS at 100 ppm, vs vehicle, p-value in brackets
Description: (§1) To screen compounds, 30 to 40 female subjects with Fitzpatrick skin types I-III, aged 60-70. At Baseline, each subject was assigned to test each treatment. The products were applied to the dorsal forearm twice daily. Topical treatment with a minimally efficacious moisturizer was used as the vehicle for each test compound and as the negative control.
(§2) After four weeks of treatment, one 4-mm punch biopsy was taken from each treated site. The dermis was separated and snap-frozen in liquid nitrogen and stored at −80° C. until assayed. The frozen tissue was then processed for gene expression analysis. To determine gene expression levels, RNA was extracted, labeled with biotin, hybridized and analyzed using Affymetrix GeneTitan® U219 microarray plates according to the manufacturer's instructions.
(§3) For genomics analysis, microarray sample quality was assessed using principal components analysis and MA-plots. Treatment to negative control comparisons for the microarray data were assessed using ANOVA models fitted separately for each probe set. ANOVA model hypothesis tests were evaluated using the Empirical Bayes method available in the limma R package. A p-value cutoff of 0.05 or less was consider statistically significant.

COL1A2 = experiment: as above; assay type: in vivo, human; settings: dorsal forearm twice daily, four weeks, retinol at 0.2%, Pal-KTTKS at 100 ppm, vs vehicle, p-value in brackets
Description: as §1, §2, §3

Row | Substance | Collagen Productivity (Collagen/Cell) ([1]; Table 5, 1% composition in culture medium, TGF-B 5 ppm) | Collagen Productivity (Collagen/Cell) ([1]; Table 6, 1:100 dilution, TGF-B 5 ppm) | Collagen Productivity (Collagen/Cell) ([1]; Table 7, 1:100 dilution, TGF-B 5 ppm) | Collagen Productivity (Collagen/Cell) ([1]; Table 9, 1:100 dilution, TGF-b 5 ppm) | COL1A1 LFC (Log base 2 of the average Fold Change) (COL1A1) | COL1A2 LFC (Log base 2 of the average Fold Change) (COL1A2)
1 | TGF-B | 5.17 | 4.86 | 4.86 | 5.17 | – | –
2 | palmitoyl-lys-thr-thr-lys-ser [Pal-KTTKS] | – | – | – | – | −0.15 (0.44) | −0.048 (0.91)
